Test results published in article PMC8178172 (Structure (London, England : 1993), 2021).

Target: human PACRG full-length short isoform (PACRG^FL, 257 a.a.) (human, UniProt Q96M98-2 1-257)
Test: cross-linking

binding result: binds
B1: human MEIG1 (His6 tag cleaved) (natural protein)
chain: MASSDVKPKSVSHAKKWSEEIENLYRFQQAGYRDETEYRQVKQVSMVDRWPETGYVKKLQRRDNTFYYYNKQRECDDKEVHKVKIYAY
